Experiments:
[1] = molecular target: IL-2Rβ/IL-2Rγ (Homo sapiens) (UniProt P14784); conditions: cited from earlier work
[2] = molecular target: mIL-2:S4B6 immunocomplex (mouse | not stated) (UniProt P04351); experiment: SPR
[3] = molecular target: mouse interleukin-2 (mouse) (UniProt P04351)
[4] = molecular target: mouse interleukin-2 displayed on the surface of yeast (mouse, UniProt P04351); experiment: flow cytometry on cells

In the case of IL-2 (from UniProt P60568), the Kd [1] is listed as 1 nM.

For “mouse interleukin-2 receptor-β (from UniProt P16297 27-240)”, the fold enhancement of binding over free mIL-2 [2] was 6 fold.

B1: S4B6 antibody (antibody, V domains shown)
VH: EVQLQESGAELVRPGTSVKLSCKVSGDTITAYYLHFVRQRPGQGLEWIGRIDPEDDSTKYAENFKNKATFTADASSNTAYLRLSSLTSEDTATYFCTTVTFYYSRELRWFAYWGQGTLVTVSS
VL: DIQVTQSPASLSASLEEIVTITCQASQDIGNYLSWYQQKLGKSPQLLIHSATSLADGVPSRFSGSRSGTQYSLKINRLQVEDTGIYYCLQHYSTPYTFGAGTKLELK
In the case of B1, the fold higher apparent affinity than the monovalent form [3] is reported as greater than 25 fold and the binding result [4] is reported as “binds”.

B2: JES6-1 antibody (antibody, V domains shown)
VH: EIQLQQSGPELRRPGSSVKLSCKASGYNITDYLIHWVRHRPEHGLEWIGWIDPEDGETRYAQKFQSKATLTADTSSNAAYMQLSSLTPEDTATYFCARSLDSTYIYPFAYWGQGTLVTVSS
VL: DIVMTQSPFSLAVSEGEMVTINCKSSQSLLSSGNQKNYLAWYQQKPGQSPKLLIYYASTGQSGVPDRFIGSGSGTDFTLTISDVQAEDLADYYCLQHYISPPTFGAGTKLELK
B2: binds [4].

Source: paper PMC4439582 (Immunity, 2015)
